# Reference: PMC5068707 (PLoS Pathogens, 2016)
# T1: SUDV VP30 CTD (139–288) (Sudan ebolavirus (SUDV), UniProt Q5XX03 139-288)
# T1 chain: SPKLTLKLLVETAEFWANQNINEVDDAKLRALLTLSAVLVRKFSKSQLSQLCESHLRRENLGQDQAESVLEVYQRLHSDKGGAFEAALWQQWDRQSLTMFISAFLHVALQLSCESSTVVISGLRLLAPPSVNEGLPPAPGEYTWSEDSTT
# T2: MARV VP30 CTD (146–281) (Marburg virus (MARV), UniProt P35258 146-281)
# T2 chain: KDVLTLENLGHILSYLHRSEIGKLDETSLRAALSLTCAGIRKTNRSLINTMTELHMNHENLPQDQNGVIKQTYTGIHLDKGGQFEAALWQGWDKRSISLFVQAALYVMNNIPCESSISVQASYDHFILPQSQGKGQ
# T3: Ebola virus VP30 C-terminal domain (amino acids 139–288) (Ebola virus (EBOV), UniProt Q05323 139-288)
# T3 chain: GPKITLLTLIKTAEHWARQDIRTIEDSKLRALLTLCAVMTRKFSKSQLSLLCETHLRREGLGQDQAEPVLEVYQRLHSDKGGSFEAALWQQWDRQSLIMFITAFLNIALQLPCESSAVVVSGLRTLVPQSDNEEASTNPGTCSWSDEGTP
# T4: SUDV VP30 CTD (139–288) (Sudan ebolavirus (SUDV), UniProt Q5XX03 139-288)
# T4 sequence: T1 chain
# Experiments:
# Assay in all cases: ITC
# SUDV VP30 CTD (139–288) [1] = target: T1, SUDV VP30 CTD (139–288)
# MARV VP30 CTD (146–281) = target: T2, MARV VP30 CTD (146–281)
# [2] = target: T3, Ebola virus VP30 C-terminal domain …
# SUDV VP30 CTD (139–288) [3] = target: T4, SUDV VP30 CTD (139–288); settings: both partners purified
Binder,Kd (SUDV VP30 CTD (139–288) [1]) [µM],Kd (MARV VP30 CTD (146–281)) [µM],Kd [2] [µM],binding result (SUDV VP30 CTD (139–288) [3])
EQGVDLPPPPLYAQEKRQ [MARV NP peptide (552–569) fused to T4 lysozyme],27.1,,,
NTPTVAPPAPVYKDTGVD [SUDV NP peptide (600–617) fused to T4 lysozyme],7.98,70,9.5,
RTPTVAPPAPVYRDHSEK [EBOV NP 600–617 fused to T4 lysozyme],4.9,35,,binds
